According to the DeepSol protein solubility set:

Test: soluble on expression in E. coli; label from the status in PepcDB or PDB records

Row | Sequence | soluble on expression in E. coli
1 | MDLKKLLPCGKVIVFRKGEIVKHQDDPIEDVLILLEGTLKTEHVSENGKTLEIDEIKPVQIIASGFIFSSEPRFPVNVVAGENSKILSIPKEVFLDLLMKDRELLLFFLKDVSEHFRVVSEKLFFLTTKTLREKLMNFLVRHMNEKRELTLPVTLEELSRLFGCARPALSRVFQELEREGYIEKHGRRIKVLKNPFEHDRI | not soluble
2 | CSSPQHASTVPGTTPSIWTGSPAPSGLSGHDEESPGAQSLTSTLTAPDGTKVATAKFEFANGYATVTIATTGVGKLTPGFHGLHIHQVGKCEPNSVAPTGGAPGNFLSAGGHYHVPGHTGTPASGDLASLQVRGDGSAMLVTTTDAFTMDDLLSGAKTAIIIHAGADNFANIPPERYVQVNGTPGPDETTLTTGDAGKRVACGVIGSG | soluble
3 | MANLFRNLFGHKKSHSKGDEDHENMDRDTSRRSIRAAPSSSSRSMARGARFQDDSMLPPTAAYHTQNASARVRRGPKSCPGEYIEEEAPSSSRSFNVDSFRREPRDQRRRSSNMVQSTSKMTSSSSSRAAPRYQQWETSEYGSENTSPIGYHRHYQHRRHHPEEEEDEEEDEEEVYKKSMRYQDLKKKIRAHYEERLFNYERTQRNDHRQIKELEKEKDDLVKMLLQSNAKLDKEKKKTEYFKRKWQEAEHKIPFGNPIMPQFGFPPATPQFPQMFQFQPNSGGSAQRYSFMGAPMHPISSSNTPTTSGMDTTHGGAGESLVPASDVSYLAPLVPAPPTLPLLELNTSQGPSTSGISQQNPQQSSSSFFHDDDEDQDETKNFRDEEIESPRCHGSTSTLKNDEEAAELSDFLSKSNLTTLEEGKDSGFSTTPDDAKEPEKVAAN | not soluble
4 | SESPEGAGPGEIVKDVKVPQAALNVSAHETGDMCRTPVAEEEEEVGIPIPAPGFLQVTERRRLHPLSRASCLRSPSWTKTRAEQNREKQPPSDPERQGTIVDTFLTVEEPKED | soluble
5 | MGSDKIHHHHHHDNNVVVLNGSGRSGSNGYAFYKWLLINHPEFNVTLVEPWPSSHLKWETWQKIGAARYVITTHQPFKVRKHQINVQLWHGVPLKRMGIMANNTRYKDNKRNEKLWHKNADIVASSSDLYETLMSACMAIESKKYQKLGFPRLDLLSKPVISKKELLKDLFDQEDEQAAIGIYMPTFRYELEDKSIMQKIKEGNFFAFADFDGEKLNKELKKRHQYLIVKLHPYEMRLFDNFKSQYSNISFLNNDYLFDHNYDLYELLGDTDFLMTDFSSIYFDYLHLNKPIVFVTNFLKQYEKTRGLLMGPYSEITPGISVNSEQELINNLDHLDNQQIVNRRIYWLNLTNQVHGDSYCENVFKYMTQEYRG | not soluble
6 | MNYHWSDHPDPNKWADCVHCGMCLEACPTYELTGHEQQSPRGRVHLIKSVAEGKLEVNEAFADPVFTCLDCRACETACPADVEVGGLIEEARGQIRQALPLSGWKLEHHHHHH | not soluble
7 | MAKAKTQFVCQNCGTVHNRWAGKCEGCGEWNTIVEEDPMGGIGSGPGKVPKKGRPVTLTSLSGEIEEAPRIPTGISELDRATGGGFVRGSAVLIGGDPGIGKSTLLMQAAAALSRRGHRVIYVSGEEAVAQVRLRAQRLGSADTDVLLAAETNVEDILATVSEGKRPDLIIIDSIQTLWSDTADSAPGTVTQVRTGVQAMIRFAKQTGATMVLVGHVTKEGQIAGPRVVEHMVDAVLYFEGDRGHHYRILRTVKNRFGPTDEIGVFEMSDGGLREVSNPSELFLGERNEKSPGAAVFAGIEGTRPVLVEVQALVAATSLGTPRRAVVGWDSSRLAMILAVLEAHCGVKLGQHDVYLNVAGGYRISEPAADMAIASALVSSLAGLALPADCVYFGEISLSGAVRPVAHTVQRLKEAEKLGFSAALLPSGSAELPKAGKGRWTEIESLPDLVAHIAGSGNRFKQVEDDEY | not soluble
8 | GHMDQSDFSPYIEIDLPSESRIQSLHKSGLAAQEWVACEKVHGTNFGIYLINQGDHEVVRFAKRSGIMDPNENFFGYHILIDEFTAQIRILNDLLKQKYGLSRVGRLVLNGELFGAKYKHPLVPKSEKWCTLPNGKKFPIAGVQIQREPFPQYSPELHFFAFDIKYSVSGAEEDFVLLGYDEFVEFSSKVPNLLYARALVRGTLDECLAFDVENFMTPLPALLGLGNYPLEGNLAEGVVIRHVRRGDPAVEKHNVSTIIKLRCSSFMELKHPGKQKE | soluble
9 | PDVKCVCCTEGKECACFGQDCCVTGECCKDGTCCGI | soluble
10 | MHHHHHHSSGVDLGTENLYFQSNAMELKDYYAILGVQPTDDLKTIKTAYRRLARKYHPDVSKENDAEAKFKDLAEAWEVLKDEQRRAEYDQLWQHRNDPGFGRQRQTHEQSYSQQDFDDIFSSMFGQQAHQRRRQHAARGHDLEIEVAVFLEETLAEQTRTISYNLPVYNVFGMIESETPKTLNVKIPAGVVDGQRIRLKGQGTPGENGGPNGDLWLVIHIAPHPLFDIVGHNLEIVLPLAPWEAALGAKVTVPTLKESILLTVPPGSQAGQRLRIKGKGLVSKTHTGDLFAVIKIVMPTKPDEKARELWQQLAAAEASFDPRKTWGKA | soluble
11 | MGSDKIHHHHHHMVLQHYFRHYCRSFCSPDDKALFMQCSRLTQVDFDQLTLGAQVLEADSHGAKVYLLTDGNFLKVFRRKRLISSALLRPYSQRFVDNAARLAQLGIPTLEVISQHKLDLPGRTAVLYRPLPGRTLLQMSRDDGFSWDTYLPRLIELIRQLHRSGVYFRSLHLGNVVVTPDQRLGLIDVADMRFLRPPLSARMIRRNVQHMVRYIERENLGDRFPLAAFEAALLTR | not soluble
12 | MSVEPTSVDPSPDKSAPANASGRADASARPSTGESARPSGGETPEVLRPHAEVTFAAELAALAAQDDRPRPVRWRLSPWAVATYLLGGTLPDGTVITPKYVGPRRIVEVAVTTLATDRALLLLGVPGTAKTWVSEHLAAAVSGDSTLLVQGTAGTPEEAIRYGWNYAQLLAHGPSRDALVPSPVMRAMADGMTARVEELTRVPADVQDTLITILSEKTLPIPELGQEVQAVRGFNLIATANDRDRGVNELSSALRRRFNTVVLPLPESADAEVDIVSRRVDQIGRSLDLPAVPDGVDEIRRVVTVFRELRDGVTTDGRTKLKSPSGTLSTAEAISVVTNGLALAAHFGDGVLRASDVAAGILGAVVRDPAADRVIWQEYLEAVVRERDGWMDFYRACREVSALEHHHHHH | soluble
13 | MKILVIGAGPAGLVFASQLKQARPLWAIDIVEKNDEQEVLGWGVVLPGRPGQHPANPLSYLDAPERLNPQFLEDFKLVHHNEPSLMSTGVLLCGVERRGLVHALRDKCRSQGIAIRFESPLLEHGELPLADYDLVVLANGVNHKTAHFTEALVPQVDYGRNKYIWYGTSQLFDQMNLVFRTHGKDIFIAHAYKYSDTMSTFIVECSEETYARARLGEMSEEASAEYVAKVFQAELGGHGLVSQPGLGWRNFMTLSHDRCHDGKLVLLGDALQSGHFSIGHGTTMAVVVAQLLVKALCTEDGVPAALKRFEERALPLVQLFRGHADNSRVWFETVEERMHLSSAEFVQSFDARRKSLPPMPEALAQNLRYALQRLEHHHHHH | soluble
14 | MSESTSSVGPGRPKDPAKREAILEAAKRLFLCNGYDGSSMEAIASEAGVSKLTVYSHFTDKETLFSEAVKAKCAEQLPALYFQLAEGAPLEKVLLNIARGFHRLINSHEAIALTRLMAAQAGQNPKLSELFFEAGPKQVIDEMERLLEQARRSGKLAFPDARHAAEHFFMLVKGCANYRLLIGCAEPLDEAEGERHVEEVVALFLRAFAAGG | not soluble
15 | GPGSMAAAEGGQRSDEQVRAAALSWLRMTPVEKRVYEEEAQSWQTRLETLSTAPPSAHDLGEGSSSAAALPDALPSAEQPLPQQQHSSHLVAQRSSPKATAERLPRSKSSFVLFRAHMKGRRKMCMRELCAVWRNMSAEEKAPYDAAAASKRTEQFLSQTPSAPGSQS | soluble
16 | MFRHVAQNLGSRNTSIQSYRLLRTRWERGYLKDLYHRRQILGADPAISRSSYPNCSVQVRNHHCSADKSTLQWAPIKTSIDNSSDDFAANTAEMKVLVEDLKAKISKIEQAGGEKAVKLHRSRGKMLARERIDGIVDAGSPFIEFSQLAGYEMYGKEEVPSGGILTGVGIVSGRVCVIVANDATVKGGTYYPITVKKHLRAQEIARENKLPCIYLVDSGGANLPRQADIFADSQHFGRIFYNQATMSSEGIPQLAVVMGSCTAGGAYVPAMSDQAIIVKGTGTVFLGGPPLVKAATGEEISAEELGGADLHCGESGVTDYYAHNDKHALYLARSCIAGLPPVEEHMTFNPNADEPLYPAEEIYGIVGSNLKKTYDVREVIARIVDGSRFHEFKERYGETLVTGFATIYGQRVGILANNGVLFAESAMKGSHFIELCCQRKIPLLFLQNITGFMVGRDAEAGGIAKHGAKLVTAVACAKVPKITVLVGGSYGAGNYGMCGRGYSPRYVFMWPNSRISVMGGEQAANVLSTVQKEKKKREGADWTDQQDLELRKPVEEKFEKEGHPYFASARLWDDGVIDPKDTRKVLGLAFQSTLQKPIPETKFGVFRM | not soluble
17 | MSLPPSQSDRDPFSVTMCHSTLASLPLVYACSGCSSVAQLANTFAVRLDRSGAAEMSCISGVGGGVPALTRVARSGRPILALDGCALSCVKACLASVDVVPDRHLVLNRLGATKRQHGVCTEAEEAETWDAVQQALAEVRGAMEGHHHHHH | soluble
18 | MGWTCERVELLKKFWSEGLSASQIAAQLGGVSRNAVIGKVHRLKLPGRGKTAQGGGRVQKALVGVSSSPVRMRRTPSTVLPTNTASCSVGATALKVDVVVEDVTEVDLPEKSNVVVPISRQLNLLQLSENTCRWPVGDPLSPDFHFCGADSGENSPYCAFHAKIAFQPISERRRIRILEHHHHHH | not soluble
19 | MTVATYEVEKQFLTYVKKIQNYGEALSLMFWDLRTGAPKKGVDQRSEVIGMLSSEVFAMSTSDEMGNYLTELEALISEDKLSETTKKMVEECRKEYDRNKKIPQAEYEAYVKLEAKAESVWEEAREKSDFEMFRPYLEQIVEFKKKFITYWGYETYKYNTLLDMYEPGITVEVLDHVFGQLRERIVPLVKEISESQKRLKTSALSEHFSKEKQKNFTLELLKQLNYDFEAGRLDETVHPFEITLNRGDVRITTRYDEKDFRMAVFGTIHECGHAVYEQNIAEKFEGTPLCSGTSMGIHESQSLFFENFIGRNKSFWKKNYDLLKEYSDGQFNDISVDEFYDAINESKPSFIRIEADELTYPLHVMVRYELEKELFDGTLQVKDLPAAWNDKMEAYLGIRPANDAQGVLQDVHWAGGSFGYFPSYALGYMYAAQFKQRMVKDIPNFDALLEEGNVTPIREWLTENIHQYGKTKKPLEILEDVTGEGLNANYLADYLEAKYREIYEL | not soluble
20 | MPFAIGQRWLSESENALGLGVITALDQRTVTIYFPAADETRIYAMAQAPLSRIVFSKGETLSHQAGWQGEILDVQNMNGLLFYLVKNPQDEDVIVQERDISPIISFSQAKDRLFSAQIDRSTHFALRY | not soluble
21 | KRQKIHLGDRSQKCSKCGIIFIRRSTLSRRKTPMCEKCRKDSCQEAALNKDEGNESGKKT | soluble
22 | MEKEIKEKNLPLELTLVEASPRVGGKIQTVKKDGYIIERGPDSFLERKKSAPQLVKDLGLEHLLVNNATGQSYVLVNRTLHPMPKGAVMGIPTKIAPFVSTGLFSLSGKARAAMDFILPASKTKDDQSLGEFFRRRVGDEVVENLIEPLLSGIYAGDIDKLSLMSTFPQFYQTEQKHRSLILGMKKTRPQGSGQQLTAKKQGQFQTLSTGLQTLVEEIEKQLKLTKVYKGTKVTKLSHSGSCYSLELDNGVTLDADSVIVTAPHKAAAGMLSELPAISHLKNMHSTSVANVALGFPEGSVQMEHEGTGFVISRNSDFAITACTWTNKKWPHAAPEGKTLLRAYVGKAGDESIVDLSDNDIINIVLEDLKKVMNINGEPEMTCVTRWHESMPQYHVGHKQRIKELREALASAYPGVYMTGASFEGVGIPDCIDQGKAAVSDALTYLFS | not soluble
